Assays:
hMRP5-Δ1-94 = target: T1, hMRP5-Δ1-94 (human, UniProt O15440 95-1437); experiment: cryo-EM structure; peptide M5PI and hMRP5-Δ1-94 incubated on ice at a ratio of 2:1 for 1 h before vitrification; digitonin; settings: both partners purified
T1 construct: human multidrug resistance protein 5 (MRP5, ABCC5), UniProt O15440, without the flexible N-terminal region Met1-Thr94; This is the construct used for cryo-EM; Plasmids and primers are in Supplementary Data 1 and 2; also called hMRP5-Δ1-94 truncation mutant; apo form; source: HEK293F, transfected, purified (strep-Tactin, SEC on Superose 6 Increase, digitonin)

hMRP5-Δ1-94-8xHis = target: T2, hMRP5-Δ1-94-8xHis (human, UniProt O15440 95-1437, RED-tris-NTA 2nd Generation dye on the His tag); experiment: MST; digitonin-purified hMRP5-Δ1-94-8xHis labelled with RED-tris-NTA 2nd Generation dye; serially diluted peptides; 15 min at room temperature; HEPES buffer; 3% LED/excitation power, medium MST power (Monolith NT); settings: both partners purified
T2 construct: human multidrug resistance protein 5 (MRP5, ABCC5), UniProt O15440, without the flexible N-terminal region Met1-Thr94; Plasmids and primers are in Supplementary Data 1 and 2; source: HEK293F, transfected; digitonin-purified (HEPES buffer instead of Tris)
T2 sequence (O15440 95-1437, stated change not applied): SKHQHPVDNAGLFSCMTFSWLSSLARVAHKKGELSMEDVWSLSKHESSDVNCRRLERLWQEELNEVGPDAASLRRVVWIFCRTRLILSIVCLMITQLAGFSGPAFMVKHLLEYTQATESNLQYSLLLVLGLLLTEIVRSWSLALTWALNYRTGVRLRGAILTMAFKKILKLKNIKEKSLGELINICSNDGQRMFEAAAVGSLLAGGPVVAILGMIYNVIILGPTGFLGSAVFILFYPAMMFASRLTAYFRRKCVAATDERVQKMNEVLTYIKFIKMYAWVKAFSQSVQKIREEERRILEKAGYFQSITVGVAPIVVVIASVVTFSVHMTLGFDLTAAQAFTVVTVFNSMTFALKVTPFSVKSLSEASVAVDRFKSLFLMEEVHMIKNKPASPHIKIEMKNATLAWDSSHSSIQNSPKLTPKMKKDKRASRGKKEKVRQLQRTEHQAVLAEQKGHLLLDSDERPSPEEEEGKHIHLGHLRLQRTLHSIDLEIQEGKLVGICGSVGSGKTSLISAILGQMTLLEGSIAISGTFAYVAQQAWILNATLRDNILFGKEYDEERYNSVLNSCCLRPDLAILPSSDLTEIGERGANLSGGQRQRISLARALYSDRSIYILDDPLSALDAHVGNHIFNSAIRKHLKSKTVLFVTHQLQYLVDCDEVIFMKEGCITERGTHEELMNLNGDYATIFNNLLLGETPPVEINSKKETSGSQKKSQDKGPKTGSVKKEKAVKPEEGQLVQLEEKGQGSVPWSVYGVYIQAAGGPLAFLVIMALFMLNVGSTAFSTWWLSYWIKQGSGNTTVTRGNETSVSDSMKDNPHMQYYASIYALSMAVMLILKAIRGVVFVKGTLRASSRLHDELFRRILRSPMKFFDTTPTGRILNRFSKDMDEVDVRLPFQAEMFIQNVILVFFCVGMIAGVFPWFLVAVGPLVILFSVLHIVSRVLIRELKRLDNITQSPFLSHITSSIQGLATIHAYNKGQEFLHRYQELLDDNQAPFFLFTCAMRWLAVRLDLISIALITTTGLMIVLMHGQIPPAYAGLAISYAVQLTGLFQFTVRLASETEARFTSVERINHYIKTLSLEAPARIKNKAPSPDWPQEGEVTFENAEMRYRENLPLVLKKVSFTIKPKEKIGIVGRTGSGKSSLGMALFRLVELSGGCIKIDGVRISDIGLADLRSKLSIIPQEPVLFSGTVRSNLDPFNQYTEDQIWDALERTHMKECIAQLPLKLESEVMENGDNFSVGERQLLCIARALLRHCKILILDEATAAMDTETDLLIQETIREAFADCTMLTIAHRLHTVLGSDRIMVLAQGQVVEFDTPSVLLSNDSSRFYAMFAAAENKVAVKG

T1 sequence (O15440 95-1437, stated change not applied): as above

B1: MRP5 potential peptide inhibitor (M5PI) (peptide, UniProt O15440 35-75, looked up)
peptide: CSKFRRTRPLECQDALETAARAEGLSLDASMHSQLRILDEC
notes: stretch 35-75 of the N-terminal loop of human MRP5 (UniProt O15440) with both terminal residues replaced by cysteine; The cysteines were meant for cyclisation; also called D35C-E75C; Asp35Cys-Glu75Cys; source: synthetic peptide (GL Biochem, Shanghai)
**Q.** Which results are given for B1?
**A.** binding result (hMRP5-Δ1-94): binds; binding result (hMRP5-Δ1-94-8xHis): binds

From article PMC11156954, “Inhibition and transport mechanisms of the ABC transporter hMRP5” (Nature Communications, 2024)
